This data set concerns the molecule itself. Kind of data set: crystal structure; novel structures of native source E. coli proteins, solved by molecular replacement and refined; oligomer seen in the crystal.

B1: Glucose-6-phosphate isomerase (pGI) (enzyme)
chain: not shown
notes: glucose-6-phosphate isomerase, Escherichia coli, native source protein; also called phosphoglucose isomerase; source: purified from E. coli DH5α cells (CaptoQ, phenyl sepharose, MonoQ)
Regarding B1, the “stoichiometry N” value stood at 2.

B2: 6-phospho-beta-glucosidase (BglA) (enzyme, Escherichia coli, UniProt Q46829 1-479, looked up)
chain: MIVKKLTLPKDFLWGGAVAAHQVEGGWNKGGKGPSICDVLTGGAHGVPREITKEVLPGKYYPNHEAVDFYGHYKEDIKLFAEMGFKCFRTSIAWTRIFPKGDEAQPNEEGLKFYDDMFDELLKYNIEPVITLSHFEMPLHLVQQYGSWTNRKVVDFFVRFAEVVFERYKHKVKYWMTFNEINNQRNWRAPLFGYCCSGVVYTEHENPEETMYQVLHHQFVASALAVKAARRINPEMKVGCMLAMVPLYPYSCNPDDVMFAQESMRERYVFTDVQLRGYYPSYVLNEWERRGFNIKMEDGDLDVLREGTCDYLGFSYYMTNAVKAEGGTGDAISGFEGSVPNPYVKASDWGWQIDPVGLRYALCELYERYQRPLFIVENGFGAYDKVEEDGSINDDYRIDYLRAHIEEMKKAVTYDGVDLMGYTPWGCIDCVSFTTGQYSKRYGFIYVNKHDDGTGDMSRSRKKSFNWYKEVIASNGEKL
notes: 6-phospho-beta-glucosidase BglA, Escherichia coli, native source protein; source: purified from E. coli DH5α cells (CaptoQ, phenyl sepharose, MonoQ)
For B2, the “stoichiometry N” value is 2.

B3: Glutamate dehydrogenase (GDH) (enzyme, Escherichia coli, UniProt P00370 1-447, looked up)
chain: MDQTYSLESFLNHVQKRDPNQTEFAQAVREVMTTLWPFLEQNPKYRQMSLLERLVEPERVIQFRVVWVDDRNQIQVNRAWRVQFSSAIGPYKGGMRFHPSVNLSILKFLGFEQTFKNALTTLPMGGGKGGSDFDPKGKSEGEVMRFCQALMTELYRHLGADTDVPAGDIGVGGREVGFMAGMMKKLSNNTACVFTGKGLSFGGSLIRPEATGYGLVYFTEAMLKRHGMGFEGMRVSVSGSGNVAQYAIEKAMEFGARVITASDSSGTVVDESGFTKEKLARLIEIKASRDGRVADYAKEFGLVYLEGQQPWSLPVDIALPCATQNELDVDAAHQLIANGVKAVAEGANMPTTIEATELFQQAGVLFAPGKAANAGGVATSGLEMAQNAARLGWKAEKVDARLHHIMLDIHHACVEHGGEGEQTNYVQGANIAGFVKVADAMLAQGVI
notes: glutamate dehydrogenase, Escherichia coli, native source protein; hexamer (dimer of trimers); source: purified from E. coli DH5α cells (CaptoQ, phenyl sepharose, MonoQ)
In the case of B3, the “stoichiometry N” value was 6.

In general, stoichiometry N refers to the number of molecules, sites or subunits per partner or assembly.

The record behind these values is paper PMC3290569, “Macro-to-Micro Structural Proteomics: Native Source Proteins for High-Throughput Crystallization” (PLoS ONE, 2012).
